In article PMC6373145:

Target: T1, recombinant GST-tagged human occludin (human), Q16625
T1 chain: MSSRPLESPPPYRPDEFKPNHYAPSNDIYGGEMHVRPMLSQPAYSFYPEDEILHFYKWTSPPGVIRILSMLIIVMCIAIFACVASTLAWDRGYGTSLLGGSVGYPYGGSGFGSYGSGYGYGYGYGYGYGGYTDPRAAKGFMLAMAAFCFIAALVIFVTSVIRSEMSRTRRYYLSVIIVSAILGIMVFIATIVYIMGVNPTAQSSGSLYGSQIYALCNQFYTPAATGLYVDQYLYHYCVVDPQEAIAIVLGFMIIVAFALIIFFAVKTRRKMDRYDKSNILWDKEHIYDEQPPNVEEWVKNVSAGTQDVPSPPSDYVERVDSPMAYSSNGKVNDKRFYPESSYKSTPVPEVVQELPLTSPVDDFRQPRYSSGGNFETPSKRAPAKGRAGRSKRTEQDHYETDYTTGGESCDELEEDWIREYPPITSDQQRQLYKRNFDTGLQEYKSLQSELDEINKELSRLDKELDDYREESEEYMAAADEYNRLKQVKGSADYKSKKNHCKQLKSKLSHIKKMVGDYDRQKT
Test: SDS-PAGE and immunoblot; recombinant GST-occludin in 50 mM HEPES pH 7.4, 16 h at 37 °C, with or without purified HtrA; 12% SDS-PAGE, blots with α-occludin H-279 and α-GST
Conditions: remark: other sources report otherwise

- stoichiometry N: 2
B1: recombinant GST-tagged human occludin, Q16625 1-522 (natural protein)
chain: T1 chain
